Our source for the positive rate values is patent US20250268939A1.

The experiment concerns the target BAFF-R Liama IgG2b Fc Tag recombinant protein (Acro, Cat. No.: BAR-H5258) (UniProt Q96RJ3). As to the kind of experiment: flow cytometry; control T cells expressing only EGFRt incubated with BAFF-R llama IgG2b Fc protein at 10 ug/mL, detected with FITC-anti llama IgG.
UniProt Q96RJ3, sequence (Q96RJ3 7-71): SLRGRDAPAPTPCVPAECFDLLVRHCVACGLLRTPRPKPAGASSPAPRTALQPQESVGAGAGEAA

In the case of “EGFRt (from UniProt P00533 334-668) (receptor)”, the positive rate was determined as 0.65%.
